Reference: paper PMC12915131 (2025)

Target: Chlamydia psittaci BioE (Chlamydia psittaci)
Assay: SPR

B1: stearoyl-ACP (E. coli acyl carrier protein carrying a C18 acyl group) (natural protein)
chain: STIEERVKKIIGEQLGVKQEEVTNNASFVEDLGADSLDTVELVMALEEEFDTEIPDEEAEKITTVQAAIDYINGHQA
modifications: holo-ACP carrying a stearoyl (C18) group, made with VhAasS
Question: How did the koff turn out when B1 was run?
Answer: Its koff is 0.00316 s⁻¹.
